According to paper PMC10286459, “The development of an anti-cancer peptide M1-21 targeting transcription factor FOXM1” (Cell & Bioscience, 2023):
pKd: −log10 of the molar value.

Tests used:
[1] = molecular target: GFP-FOXM1(688-748) (human); assay: MST; GFP-fused FOXM1 protein as the fluorescent partner, synthesized peptide varied from 0.030 to 1000 µM; PBST (1×PBS 0.01 M, 0.05% Tween-20); 25 °C; Monolith NT.115, LED power 60%, medium MST power
[2] = molecular target: endogenous FOXM1 protein (human (endogenous in 293T and MDA-MB-231)) (UniProt Q08050)
Chain of endogenous FOXM1 protein (human (endogenous in 293T and MDA-MB-231)) (Q08050 whole entry, the tested form may be a part): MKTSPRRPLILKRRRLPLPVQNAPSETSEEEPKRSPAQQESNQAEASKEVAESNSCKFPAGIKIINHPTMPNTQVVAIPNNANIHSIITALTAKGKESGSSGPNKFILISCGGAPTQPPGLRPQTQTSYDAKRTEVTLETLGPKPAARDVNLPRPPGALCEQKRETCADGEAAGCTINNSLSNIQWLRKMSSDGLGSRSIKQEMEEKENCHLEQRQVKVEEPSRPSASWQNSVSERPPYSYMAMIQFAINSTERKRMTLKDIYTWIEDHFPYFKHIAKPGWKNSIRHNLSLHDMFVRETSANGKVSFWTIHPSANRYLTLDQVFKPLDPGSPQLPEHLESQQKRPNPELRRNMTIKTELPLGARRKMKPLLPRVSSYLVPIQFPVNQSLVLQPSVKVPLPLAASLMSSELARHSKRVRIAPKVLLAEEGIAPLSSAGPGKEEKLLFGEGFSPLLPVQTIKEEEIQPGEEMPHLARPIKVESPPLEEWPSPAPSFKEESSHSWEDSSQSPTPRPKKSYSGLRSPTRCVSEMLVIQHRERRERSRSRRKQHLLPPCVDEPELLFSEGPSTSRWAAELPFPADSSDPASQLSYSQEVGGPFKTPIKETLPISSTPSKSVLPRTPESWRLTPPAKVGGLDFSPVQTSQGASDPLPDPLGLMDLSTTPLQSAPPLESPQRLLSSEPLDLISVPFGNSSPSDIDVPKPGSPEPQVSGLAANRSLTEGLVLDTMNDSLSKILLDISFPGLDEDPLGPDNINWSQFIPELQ

[3] = molecular target: GFP-FOXM1 (human) (UniProt Q08050); assay: MST; GFP-fused FOXM1 protein as the fluorescent partner, synthesized peptide varied from 0.030 to 1000 µM; PBST (1×PBS 0.01 M, 0.05% Tween-20); 25 °C; Monolith NT.115, LED power 60%, medium MST power
Chain of GFP-FOXM1 (human) (Q08050 other isoform, or with tags, fused parts or gaps): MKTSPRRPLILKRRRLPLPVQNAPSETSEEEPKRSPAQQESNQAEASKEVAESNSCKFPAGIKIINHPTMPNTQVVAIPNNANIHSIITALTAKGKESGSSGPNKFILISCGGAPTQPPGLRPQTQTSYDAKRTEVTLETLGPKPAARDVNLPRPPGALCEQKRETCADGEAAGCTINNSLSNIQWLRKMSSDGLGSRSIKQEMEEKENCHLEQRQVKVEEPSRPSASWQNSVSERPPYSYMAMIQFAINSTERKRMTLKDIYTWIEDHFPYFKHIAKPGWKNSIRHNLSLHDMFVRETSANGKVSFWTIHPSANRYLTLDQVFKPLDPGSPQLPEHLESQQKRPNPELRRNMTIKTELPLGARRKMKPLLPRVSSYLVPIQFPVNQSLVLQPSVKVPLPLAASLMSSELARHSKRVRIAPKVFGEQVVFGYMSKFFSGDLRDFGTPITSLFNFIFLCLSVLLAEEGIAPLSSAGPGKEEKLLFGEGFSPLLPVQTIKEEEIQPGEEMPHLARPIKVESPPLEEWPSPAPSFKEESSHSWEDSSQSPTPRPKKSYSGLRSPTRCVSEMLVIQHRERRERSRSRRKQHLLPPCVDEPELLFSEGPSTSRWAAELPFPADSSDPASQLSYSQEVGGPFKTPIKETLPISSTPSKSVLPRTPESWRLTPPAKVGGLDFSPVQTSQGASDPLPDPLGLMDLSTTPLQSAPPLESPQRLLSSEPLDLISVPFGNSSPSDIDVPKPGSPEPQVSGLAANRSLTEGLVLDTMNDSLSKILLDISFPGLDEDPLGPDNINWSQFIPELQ

[4] = molecular target: endogenous FOXM1 protein (human (endogenous in 293T and MDA-MB-231)) (UniProt Q08050); remark: listed apart in the source

Substance | pKd [1] | IC50 of cell viability, MDA-MB-231 cells, 48 h (trypan blue) [2] [µM] | pKd [3] | IC50 of cell viability, MDA-MB-231 cells, 48 h (trypan blue; Fig. 2C) [4] [µM]
TAT-96-116 (from UniProt Q08050 96-116) (peptide) | 5.55 |  |  | 
TAT-101-121 (from UniProt Q08050 101-121) (peptide) | 5.26 |  |  | 
TAT-106-126 (from UniProt Q08050 106-126) (peptide) | 5.41 | 53.4 | 5.15 | 54.3
